Data: patent US20080166345A1, “MEDICAMENTS COMPRISING GENE RECOMBINANT ANTIBODY AGAINST GANGLIOSIDE GD3” (KYOWA HAKKO KOGYO CO., LTD., priority 2001, published 2008)

Tests used:
B16-F10 cell = assay: Fluorescent antibody technique (flow cytometer), parent cell line; format: binding, mouse; conditions: antibody 5 μg/ml; FIG. 3
Description: Each of 1×10^6 cells of the GD3 synthase gene transfectants B16-8-3 and B16-29-10 obtained in b. of the item (2) of Example 1 and the parent cell line B16-F10 cell were suspended in PBS, put into a microtube (manufactured by Treff) and centrifuged (2,000 rpm for 2 minutes) for washing the cells, 50 μl of the anti-GD3 human chimeric antibody KM871 (a solution prepared by adjusting to 5 μg/ml with 1% BSA-PBS, negative control was 1% BSA-PBS alone) was added thereto, followed by stirring, and the reaction was carried out at 4° C. for 1 hour. After the reaction and subsequent washing with PBS by centrifugation three times, 100 μl of biotin-labeled goat anti-human IgG (H+L) solution (manufactured by VECTOR, used by diluting 400 folds with 1% BSA-PBS) was added thereto, followed by stirring, and the reaction was carried out at 4° C. for 1 hour. After washing with PBS by centrifugation three times, 100 μl of a streptoavidin-labeled Cy5 pigment solution (Streptoavidin-RED670 manufactured by GIBCO, used by diluting 100 folds with 1% BSA-PBS) was added thereto, followed by stirring, and the reaction was carried out at 4° C. for 30 minutes. After the reaction and subsequent washing with PBS by centrifugation three times, the cells were again suspended in PBS to carry out the analysis using a flow cytometer EPICS Elite (manufactured by COULTER).

[1] = system: GD3 expressing B16 cell B16•29-10; assay: Antitumor effects of KM871 with human IL-2, mouse syngeneic graft model; format: in vivo, C57 BL/6 mouse; conditions: FIG. 4; KM871 50 μg/day, IL-2 10 μg/day, days 6-14, tail vein
Description: Six days after the tumor inoculation, the tumor diameter was measured using slide calipers to calculate the tumor volume by the following equation, and individuals having the value within the range of 10 to 80 mm^3 were selected.
Tumor volume=(width)^2×length×0.5
They were divided into groups in such a manner that the average tumor volume became uniform, and then the following administration groups of A to D were arranged to carry out continuous administration of the following agents from the tail vein once a day for 8 days (from the 6th day to 14th day).
IL-2 (Human Recombinant IL-2, Manufactured by Peprotech) Alone Group:
The test was carried out using 5 animals for each group. Each agent was prepared to 200 μl per animal by diluting with a citrate buffer (an aqueous solution of 10 mM citric acid and 150 n sodium chloride, adjusted to pH 6 with sodium hydroxide). From the 6th day after the inoculation, the tumor volume was periodically measured, and the antitumor effects were judged by comparing the mean value of specific volume V/V0 in each group.

[2] = system: human melanoma culture cell line G-361; assay: In vitro cytotoxic activity (CDC activity), 51Cr release; format: cell-based; conditions: antibody 0.05 to 50 μg/ml, human complement; FIG. 24
Description: Each of human melanoma culture cell lines, G-361 (ATCC CRL 1424) and SK-MEL-28 (ATCC HTB72), was cultured in RPMI1640-FBS(10) medium and adjusted to 5×10^6 cells, and the cells were isotope-labeled by adding 3.7 MBq equivalent of a radioactive substance Na2^51CrO4 and carrying out the reaction at 37° C. for 1 hour. After the reaction, the cells were washed three times by their suspension in RPMI1640-FBS(10) medium and centrifugation, re-suspended in the medium and then incubated in ice at 4° C. for 30 minutes to thereby spontaneously release the radioactive substance. […]
To each well of a 96 well U bottom plate (manufactured by Falcon), 50 μl of the target cell suspension prepared in “a.” was added (5×10^4 cells/well), and then the anti-GD3 chimeric antibody KM871 or the anti-GD3 CDR-grafted antibody, KM8869, KM8870 or KM8871, was added to give a final concentration of 0.05 to 50 μg/ml and allowed to react at room temperature for 30 minutes. […] After centrifugation, the amount of ^51Cr released in the supernatant was measured by a γ-counter. The amount of the spontaneously dissociated ^51Cr was calculated by carrying out the same procedure using the medium alone instead of the antibody solution and complement solution and measuring the amount of ^51Cr in the supernatant. […] The CDC activity was calculated by the following equation.

[3] = Reactivity of purified antibodies with GD3 (ELISA); format: binding; conditions: antibody 10 μg/ml, 20 pmol/well; FIG. 22
Description: Each ganglioside (2 nmol) was dissolved in […] of ethanol solution containing 10 μg of dipalmitoylphosphatidylcholine (manufactured by SIGMA) and 5 μg of cholesterol (manufactured by SIGMA). In each well of a 96 well plate for ELISA (manufactured by Greiner), 20 μl of the solution (becomes 20 pmol/well) or 20 μl of the solution diluted with ethanol was respectively dispensed, followed by air-drying, and then PBS containing 1% BSA (hereinafter referred to as “1% BSA-PBS”) was added in 100 μl/well and allowed to react at room temperature for 1 hour to thereby block remaining active groups. After discarding 1% BSA-PBS, culture supernatants of transformants or diluted solutions of humanized antibodies were added in 50 μl/well and allowed to react at room temperature for 1 hour. […] After the reaction and subsequent washing with Tween-PBS, an ABTS substrate solution (a solution prepared by dissolving 0.55 g of 2,2′-azinobis(3-ethylbenzothiazoline-6-sulfonic acid) in 1 L of 0.1 M citrate buffer (pH 4.2) and adding 1 μl/ml hydrogen peroxide just before the use) was added in 50 μl/well for color development and the absorbance at 415 nm (hereinafter referred to as “OD415”) was measured.
Reactivity of purified anti-GD3 CDR-grafted antibodies KM8869, KM8870 and KM8871 with GD3 (manufactured by DIA-IATRON) was measured by the ELISA shown in the item 2 of Reference Example. […]

- binding to ganglioside [3]: bound strongly
B1: KM871: anti-GD3 human chimeric antibody; VH SEQ ID NO:49, VL SEQ ID NO:50, human IgG1 and κ C regions (antibody, listed as Mus musculus, V domains shown)
VH: EVTLVESGGDFVKPGGSLKVSCAASGFAFSHYAMSWVRQTPAKRLEWVAYISSGGSGTYYSDSVKGRFTISRDNAKNTLYLQMRSLRSEDSAMYFCTRVKLGTYYFDSWGQGTTLTVSS
VL: DIQMTQTASSLPASLGDRVTISCSASQDISNYLNWYQQKPDGTVKLLIFYSSNLHSGVPSRFSGGGSGTDYSLTISNLEPEDIATYFCHQYSKLPWTFGGGTKLEIKR
modifications: human IgG1 and kappa constant regions
- reactivity with cells (B16-F10 cell): did not show reactivity
- tumor growth inhibitory effects (mean V/V0) [1]: antitumor effects were not found
- CDC activity [2]: remarkably strong cytotoxic activity
